The assay deals with T1, recombinant human CEACAM1 expressed in the murine myeloma cell line NSO (human, UniProt P13688 35-428).
T1 construct: human CEACAM1, recombinant; also called immobilized CEACAM1; CD66a; source: bought: R&D systems (expressed in NSO cells)
T1 sequence (looked up): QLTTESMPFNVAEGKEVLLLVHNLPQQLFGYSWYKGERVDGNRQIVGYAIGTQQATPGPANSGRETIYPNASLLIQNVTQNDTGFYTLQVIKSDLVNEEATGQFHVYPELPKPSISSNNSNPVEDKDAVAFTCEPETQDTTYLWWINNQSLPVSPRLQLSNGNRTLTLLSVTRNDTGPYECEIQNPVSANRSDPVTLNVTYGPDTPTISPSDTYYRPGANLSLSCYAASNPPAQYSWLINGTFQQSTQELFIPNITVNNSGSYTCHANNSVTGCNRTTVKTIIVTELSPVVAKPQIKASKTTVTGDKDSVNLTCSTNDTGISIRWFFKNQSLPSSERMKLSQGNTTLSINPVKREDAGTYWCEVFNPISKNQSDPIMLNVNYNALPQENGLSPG
As to the kind of experiment: ELISA; Gal‐9 or CEACAM1 immobilized overnight at 4°C on Maxisorp plates (coating 0.5 μg/mL); Ig fusion proteins added in PBS‐0.5% BSA, 1 h at room temperature; detected with HRP‐labeled goat‐anti‐human IgG (Fc‐specific), ABTS, OD 405 nm. Conditions: both partners purified. (ELISA stands for enzyme-linked immunosorbent assay.)

B1: fusion protein representing the extracellular domain of CEACAM1 (CEACAM1‐Ig) (Fc fusion, human, UniProt P13688 35-428, looked up)
chain: T1 sequence (looked up)
notes: CEACAM1 (CD66a), extracellular domain; also called CEACAM1 Ig fusion protein; source: bought: SinoBiological
Regarding B1, the binding result is listed as “binds”.

The values above are taken from paper PMC7496933, “TIM‐3 and CEACAM1 do not interact in cis and in trans” (European Journal of Immunology, 2020).
